In patent publication US20180298070A1, “PEPTIDE COMPOUND” (Takeda Pharmaceutical Company Limited, published 2018):
Starred links: 1 amine or outer side, 2 acyl side, 3 side chain; linkers in the order of their positions; H or OH if unused. Non-standard residues stand in square brackets, D forms with d. Groups on a side chain read outwards from the residue. Primed or numbered codes have the meaning given here. No end group written: not given here. *: point of attachment. C20 diacid = O=C(O)CCCCCCCCCCCCCCCCCCC(=O)*; γGlu = O=C(O)[C@H](CCC(=O)[*:2])N[*:1]; NMeY = CN[C@@H](Cc1ccc(O)cc1)C(=O)O; Stearoyl = CCCCCCCCCCCCCCCCCC(=O)*; Tridecanoyl = CCCCCCCCCCCCC(=O)*; αMeF = C[C@](N)(Cc1ccccc1)C(=O)O; Lauroyl = CCCCCCCCCCCC(=O)*; dIva = CC[C@@](C)(N)C(=O)O; Iva = CC[C@](C)(N)C(=O)O; PEG2′ = not defined here; PEG3′ = not defined here; Hexanoyl = CCCCCC(=O)*; Aib = CC(C)(N)C(=O)O

T1: human GIPR (human), P48546
T1 chain: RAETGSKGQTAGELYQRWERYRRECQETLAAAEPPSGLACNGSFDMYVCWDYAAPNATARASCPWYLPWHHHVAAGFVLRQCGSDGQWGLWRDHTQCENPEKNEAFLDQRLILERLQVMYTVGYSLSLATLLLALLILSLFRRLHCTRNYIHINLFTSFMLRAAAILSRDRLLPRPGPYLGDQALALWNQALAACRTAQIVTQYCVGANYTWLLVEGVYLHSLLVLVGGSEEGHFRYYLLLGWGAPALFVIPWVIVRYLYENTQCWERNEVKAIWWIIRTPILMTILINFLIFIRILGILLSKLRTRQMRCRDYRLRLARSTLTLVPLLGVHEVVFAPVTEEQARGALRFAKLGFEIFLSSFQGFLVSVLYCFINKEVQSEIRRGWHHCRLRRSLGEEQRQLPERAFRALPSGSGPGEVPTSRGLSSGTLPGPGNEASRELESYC

T2: human GLP-1R (human), P43220
T2 chain: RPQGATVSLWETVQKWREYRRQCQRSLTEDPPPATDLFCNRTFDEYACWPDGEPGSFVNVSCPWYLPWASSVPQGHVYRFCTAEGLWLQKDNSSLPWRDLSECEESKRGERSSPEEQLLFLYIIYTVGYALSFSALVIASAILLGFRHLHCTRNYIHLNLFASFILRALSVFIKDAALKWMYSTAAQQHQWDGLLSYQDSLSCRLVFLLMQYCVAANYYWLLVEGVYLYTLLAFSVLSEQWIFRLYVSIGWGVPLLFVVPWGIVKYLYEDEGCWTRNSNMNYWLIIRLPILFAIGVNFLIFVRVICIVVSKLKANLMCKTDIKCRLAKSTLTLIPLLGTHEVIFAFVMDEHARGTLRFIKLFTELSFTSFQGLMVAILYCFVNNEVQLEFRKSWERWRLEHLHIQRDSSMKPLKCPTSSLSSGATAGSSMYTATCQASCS


Experiments:
[1] = biological target: T1, human GIPR (human), P48546
[2] = biological target: T1, human GIPR (human), P48546; assay: [125I]GIP displacement, hGIPR VLP
[3] = biological target: T2, human GLP-1R (human), P43220

Row | Binder | Agonist activity (EC50, M) [1] | IC50 [2] | Agonist activity (EC50, M) [3]
1 | [NMeY][Aib]EGTFISDYSIALDR[Aib]AQ[Aib]NFVNW[Iva]LAQRPSSGAPPPSR (ends and bridges not checked) [Compound 84] | 1.2e-12 M | 1.2 nM | –
2 | Y[Aib]EGTFISDYSK([PEG2′-Lauroyl])ALDRIHQQDFVNWLLAQRPSSGAPPPSR (ends and bridges not checked) [Compound 180] | 1.9e-12 M | 1.2 nM | > 1e-06 M
3 | Y[Aib]EGTFISDYSK([PEG(2)-Ac])ALDRIHQQDFVNWLLAQRPSSGAPPPS (ends and bridges not checked) [Compound 173] | 4.4e-12 M | 7.1 nM | > 1e-06 M
4 | Y[Aib]EGTFISDYSK([PEG2′-Tridecanoyl])ALDRIAQQDFVNWLLAQRPSSGAPPPSR (ends and bridges not checked) [Compound 185] | 7e-12 M | 19 nM | 2.6e-08 M
5 | Y[Aib]EGTVVSLYSK([Gly-Gly-Gly-Gly-C20 diacid])[Aib]LDRQAQ[Aib]EFVK(Ac)WLLAQR (ends and bridges not checked) [Compound 260] | 2.6e-10 M | 15 nM | > 1e-06 M
6 | Y[Aib]EGTFISDYSK([PEG3′-PEG3′-γGlu-C20 diacid])ALDR[Aib]HQ[Aib]NFVNW[Iva]LAQRPSSGAPPPS (not fully specified (C-terminus); ends and bridges not checked) [Compound 242] | 6.7e-11 M | – | > 1e-06 M
7 | Y[Aib]EGTFISDYSIALDRK([PEG(2)-dodec])HQ[Aib]NFVNW[Iva]LAQRPSSGAPPPS (not fully specified (C-terminus); ends and bridges not checked) [Compound 239] | 2.5e-12 M | – | 5e-08 M
8 | Y[Aib]EGTFISDYSK([PEG(2)-Ac])ALDRIHQQDFVNWLLAQRPSSGAPPPSR (ends and bridges not checked) [Compound 178] | 4.2e-12 M | 3 nM | > 1e-06 M
9 | Y[Aib]EGTFISDYSIALDRK([PEG(2)-Pal])HQQDFVNWLLAQRPSSGAPPPS (not fully specified (C-terminus); ends and bridges not checked) [Compound 233] | 3.8e-12 M | – | > 1e-06 M
10 | Me-Y[Aib]EGTFISDYSIALDRIAQ[Aib]SFVNWLLAQRPSSGAPPPSR (not fully specified (residue 1, C-terminus); ends and bridges not checked) [Compound 136] | 2.2e-12 M | 2.1 nM | 2.1e-07 M
11 | Y[Aib]EGTVVSLYSI[Aib]LDKQAQ[Aib]EFVKWLLKGK(Pal) (ends and bridges not checked) [Compound 163] | 6.6e-09 M | 50 nM | > 1e-06 M
12 | [NMeY][Aib]EGTFISDYSIALDRIAQ[Aib]SFVNW[Iva]LAQRPSSGAPPPSR (ends and bridges not checked) [Compound 124] | 1.7e-12 M | 1.6 nM | > 1e-06 M
13 | Y[Aib]EGTFISDYSK([PEG2′-Stearoyl])ALDRIHQQDFVNWLLAQRPSSGAPPPSR (ends and bridges not checked) [Compound 181] | 9.2e-12 M | 2.6 nM | > 1e-06 M
14 | Y[Aib]EGTVVSLYSI[Aib]LDKQAQ[Aib]EFVKWLLAQKK(Pal) (ends and bridges not checked) [Compound 161] | – | 24 nM | > 1e-06 M
15 | Y[Aib]EGTFISDYSK([PEG2′-Hexanoyl])ALDRIHQQDFVNWLLAQRPSSGAPPPSR (ends and bridges not checked) [Compound 179] | 3e-12 M | 2.1 nM | > 1e-06 M
16 | Ac-Y[Aib]EGTFISDYSI[dIva]LDRIAQ[Aib]NFVNW[Iva]LAQRPSSGAPPPSR (ends and bridges not checked) [Compound 152] | 2.8e-12 M | 2.1 nM | > 1e-06 M
17 | Y[Aib]EGTVVSLYSK([PEG(2)-Pal])[Aib]LDKQAQ[Aib]EFVKWLLAQK (ends and bridges not checked) [Compound 158] | 9.9e-11 M | 3.4 nM | > 1e-06 M
18 | Y[Aib]EGTFISDYSK([PEG(2)-Pal])ALDRIHQQDFVNWLLAQRPSSGAPPPSR (ends and bridges not checked) [Compound 177] | 7.2e-12 M | 2.4 nM | > 1e-06 M
19 | [NMeY][Aib]EGTFISDYSI[dIva]LDR[Aib]AQ[Aib]N[αMeF]VNWLLAQRPSSGAPPPSR (not fully specified (N-terminus, C-terminus); ends and bridges not checked) [Compound 106] | 1.7e-12 M | 1.6 nM | > 1e-06 M
20 | Y[Aib]EGTVVSLYSK(Pal)[Aib]LDKQAQ[Aib]EFVKWLLAQK (ends and bridges not checked) [Compound 159] | 7.8e-10 M | 8.1 nM | > 1e-06 M
21 | [NMeY][Aib]EGTFISDYSIALDR[Aib]AQQSFVNWLLAQRPSSGAPPPSR (not fully specified (N-terminus, C-terminus); ends and bridges not checked) [Compound 137] | 1.7e-12 M | 0.98 nM | > 1e-06 M
22 | [NMeY][Aib]EGTFISDYSI[dIva]LDRIAQ[Aib]N[αMeF]VNWLLAQRPSSGAPPPSR (ends and bridges not checked) [Compound 99] | 2.9e-12 M | 2.1 nM | > 1e-06 M
23 | Me-Y[Aib]EGTFISDYSIALDRIAQQN[αMeF]VNWLLAQRPSSGAPPPSR (not fully specified (residue 1, C-terminus); ends and bridges not checked) [Compound 134] | 2.3e-12 M | 1.2 nM | > 1e-06 M
24 | Y[Aib]EGTFISDYSK([PEG(2)-Stearoyl])ALDRIHQQDFVNWLLAQRPSSGAPPPS (ends and bridges not checked) [Compound 176] | 1.9e-11 M | 3.4 nM | > 1e-06 M
25 | Y[Aib]EGTFISDYSK([PEG(2)-Lauroyl])ALDR[Aib]HQQSFVNW[Iva]LAQRPSSGAPPPS (not fully specified (C-terminus); ends and bridges not checked) [Compound 224] | 4.2e-12 M | – | > 1e-06 M
26 | Y[Aib]EGTVVSLYSI[Aib]LDKQAQ[Aib]EFVKWLLAQKK([PEG(2)-Pal]) (ends and bridges not checked) [Compound 160] | 9.5e-11 M | 4.1 nM | > 1e-06 M
